The source of these data is patent publication US20150191546A1.

The target in the assay is recombinant PR1/HLA-A*0201 monomer (human). Nature of the assay: SPR (Biacore), antibody captured, peptide/HLA-A2 as analyte. (In general: In SPR one partner is held on a chip, and binding of the other changes the refractive index at the surface.)

With “BB7.2 murine monoclonal antibody (HLA-A*0201 allele-specific mouse IgG2a)”, the Kd was found to be 162 nM.

Usually Kd stands for the equilibrium constant for the complex coming apart.
